The text below walks through data of US20250262210A1 (TRUSTEES OF COLUMBIA UNIVERSITY IN THE CITY OF NEW YORK, published 2025).

Substitutions are numbered along the chain they refer to.

One experiment addresses T1, LZTR1 R810W-FLAG (human, UniProt Q8N653 1-840).
T1 construct: Stably expressed in U87 cells by lentivirus; also called LZTR1-FLAG-R810W; LZTR1 RW; not shown: FLAG tag
T1 sequence (looked up): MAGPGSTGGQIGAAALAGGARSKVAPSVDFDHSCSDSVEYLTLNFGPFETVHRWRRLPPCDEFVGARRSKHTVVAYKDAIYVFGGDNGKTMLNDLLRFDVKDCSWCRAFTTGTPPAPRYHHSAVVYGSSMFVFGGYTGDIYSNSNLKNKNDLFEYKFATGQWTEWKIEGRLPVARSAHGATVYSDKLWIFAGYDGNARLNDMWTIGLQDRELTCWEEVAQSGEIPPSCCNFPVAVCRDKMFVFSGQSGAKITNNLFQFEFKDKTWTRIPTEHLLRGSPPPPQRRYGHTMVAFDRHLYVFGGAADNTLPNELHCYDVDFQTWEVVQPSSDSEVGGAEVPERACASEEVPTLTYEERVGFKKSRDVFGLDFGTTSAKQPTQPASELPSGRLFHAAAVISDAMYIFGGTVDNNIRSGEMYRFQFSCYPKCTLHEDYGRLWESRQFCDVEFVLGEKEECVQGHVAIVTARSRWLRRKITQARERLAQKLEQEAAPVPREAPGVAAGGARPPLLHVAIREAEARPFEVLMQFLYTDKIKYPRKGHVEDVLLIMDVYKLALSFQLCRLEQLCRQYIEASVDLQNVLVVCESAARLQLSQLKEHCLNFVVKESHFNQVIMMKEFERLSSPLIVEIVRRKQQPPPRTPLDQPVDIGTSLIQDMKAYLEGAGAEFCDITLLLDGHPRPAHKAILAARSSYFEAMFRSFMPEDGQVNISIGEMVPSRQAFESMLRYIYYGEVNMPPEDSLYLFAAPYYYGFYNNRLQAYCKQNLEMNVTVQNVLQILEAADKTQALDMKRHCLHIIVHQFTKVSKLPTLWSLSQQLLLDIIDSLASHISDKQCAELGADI
The experiment can be described thus: IP/MS, LZTR1 R810W-FLAG, U87. The method, then: (§1) Lysates were immunoprecipitated with FLAG affinity matrix and eluted with FLAG peptide. […] Protein gel slices were excised and in-gel digestion performed as previously described (83), with minor modifications. Gel slices were washed with 1:1 A cetonitrile and 100 mM ammonium bicarbonate for 30 min then dehydrated with 100% acetonitrile for 10 min until shrunk. The excess acetonitrile was then removed and the slices dried in speed-vacuum at room temperature for 10 min. Gel slices were reduced with 5 mM DTT for 30 min at 56° C. in an air thermostat, cooled down to room temperature, and alkylated with 11 mM IAA for 30 min with no light. Gel slices were then washed with 100 mM of ammonium bicarbonate and 100% acetonitrile for 10 min each. Excess acetonitrile was removed and dried in a speed-vacuum for 10 min at room temperature and the gel slices were re-hydrated in a solution of 25 ng/μl trypsin in 50 mM ammonium bicarbonate for 30 min on ice and digested overnight at 37° C. in an air thermostat. Digested peptides were collected and further extracted from gel slices in extraction buffer (1:2 ratio by volume of 5% formic acid:acetonitrile) at high speed, shaking in an air thermostat. The supernatants from both extractions were combined and dried in a speed-vacuum. Peptides were dissolved in 3% acetonitrile/0.1% formic acid. Desalted peptides were injected in an EASY-Spray™ PepMap™ RSLC C18 50 cm×[…] column (Thermo Scientific) connected to an Orbitrap Fusion™ Tribrid™ (Thermo Scientific) as described in “Global ubiquitylation enrichment” section. The following modifications were used for protein identification and quantification: oxidation of methionine (M), acetylation of the protein N-terminus, and deamination for asparagine or glutamine (NQ). Results obtained from MaxQuant were assembled in Scaffold for data visualization.

The target in another experiment is T2, LZTR1-FLAG (human, UniProt Q8N653 1-840).
T2 construct: Expressed in HEK 293T, HeLa or U87 cells; used as cell lysate; also called LZTR1 wild type-FLAG; LZTR1 WT; not shown: FLAG tag at the C-terminus
T2 sequence (looked up): T1 sequence (looked up) with W810R
The experiment can be described thus: IP/MS, LZTR1 wild type-FLAG, U87. The method, then:
as §1

B1: ADAM 15 (other, human, UniProt Q13444 207-863, looked up)
chain: DVVTETKTVELVIVADHSEAQKYRDFQHLLNRTLEVALLLDTFFRPLNVRVALVGLEAWTQRDLVEISPNPAVTLENFLHWRRAHLLPRLPHDSAQLVTGTSFSGPTVGMAIQNSICSPDFSGGVNMDHSTSILGVASSIAHELGHSLGLDHDLPGNSCPCPGPAPAKTCIMEASTDFLPGLNFSNCSRRALEKALLDGMGSCLFERLPSLPPMAAFCGNMFVEPGEQCDCGFLDDCVDPCCDSLTCQLRPGAQCASDGPCCQNCQLRPSGWQCRPTRGDCDLPEFCPGDSSQCPPDVSLGDGEPCAGGQAVCMHGRCASYAQQCQSLWGPGAQPAAPLCLQTANTRGNAFGSCGRNPSGSYVSCTPRDAICGQLQCQTGRTQPLLGSIRDLLWETIDVNGTELNCSWVHLDLGSDVAQPLLTLPGTACGPGLVCIDHRCQRVDLLGAQECRSKCHGHGVCDSNRHCYCEEGWAPPDCTTQLKATSSLTTGLLLSLLVLLVLVMLGASYWYRARLHQRLCQLKGPTCQYRAAQSGPSERPGPPQRALLARGTKQASALSFPAPPSRPLPPDPVSKRLQAELADRPNPPTRPLPADPVVRSPKSQGPAKPPPPRKPLPADPQGRCPSGDLPGPGAGIPPLVVPSRPAPPPPTVSSLYL
notes: Printed as ADAM 15; read as ADAM15
As to B1, the binding result with LZTR1 R810W-FLAG and with LZTR1-FLAG was “binds” each time.

B2: AMOTL2 (other, human, UniProt Q9Y2J4 1-779, looked up)
chain: MRTLEDSSGTVLHRLIQEQLRYGNLTETRTLLAIQQQALRGGAGTGGTGSPQASLEILAPEDSQVLQQATRQEPQGQEHQGGENHLAENTLYRLCPQPSKGEELPTYEEAKAHSQYYAAQQAGTRPHAGDRDPRGAPGGSRRQDEALRELRHGHVRSLSERLLQLSLERNGARAPSHMSSSHSFPQLARNQQGPPLRGPPAEGPESRGPPPQYPHVVLAHETTTAVTDPRYRARGSPHFQHAEVRILQAQVPPVFLQQQQQYQYLQQSQEHPPPPHPAALGHGPLSSLSPPAVEGPVSAQASSATSGSAHLAQMEAVLRENARLQRDNERLQRELESSAEKAGRIEKLESEIQRLSEAHESLTRASSKREALEKTMRNKMDSEMRRLQDFNRDLRERLESANRRLASKTQEAQAGSQDMVAKLLAQSYEQQQEQEKLEREMALLRGAIEDQRRRAELLEQALGNAQGRAARAEEELRKKQAYVEKVERLQQALGQLQAACEKREQLELRLRTRLEQELKALRAQQRQAGAPGGSSGSGGSPELSALRLSEQLREKEEQILALEADMTKWEQKYLEERAMRQFAMDAAATAAAQRDTTLIRHSPQPSPSSSFNEGLLTGGHRHQEMESRLKVLHAQILEKDAVIKVLQQRSRRDPGKAIQGSLRPAKSVPSVFAAAAAGTQGWQGLSSSERQTADAPARLTTDRAPTEEPVVTAPPAAHAKHGSRDGSTQTEGPPDSTSTCLPPEPDSLLGCSSSQRAASLDSVATSRVQDLSDMVEILI
With B2, the binding result with LZTR1 R810W-FLAG and with LZTR1-FLAG was “binds” in each case.

B3: AHR (other, human, UniProt P35869 11-848, looked up)
chain: ASRKRRKPVQKTVKPIPAEGIKSNPSKRHRDRLNTELDRLASLLPFPQDVINKLDKLSVLRLSVSYLRAKSFFDVALKSSPTERNGGQDNCRAANFREGLNLQEGEFLLQALNGFVLVVTTDALVFYASSTIQDYLGFQQSDVIHQSVYELIHTEDRAEFQRQLHWALNPSQCTESGQGIEEATGLPQTVVCYNPDQIPPENSPLMERCFICRLRCLLDNSSGFLAMNFQGKLKYLHGQKKKGKDGSILPPQLALFAIATPLQPPSILEIRTKNFIFRTKHKLDFTPIGCDAKGRIVLGYTEAELCTRGSGYQFIHAADMLYCAESHIRMIKTGESGMIVFRLLTKNNRWTWVQSNARLLYKNGRPDYIIVTQRPLTDEEGTEHLRKRNTKLPFMFTTGEAVLYEATNPFPAIMDPLPLRTKNGTSGKDSATTSTLSKDSLNPSSLLAAMMQQDESIYLYPASSTSSTAPFENNFFNESMNECRNWQDNTAPMGNDTILKHEQIDQPQDVNSFAGGHPGLFQDSKNSDLYSIMKNLGIDFEDIRHMQNEKFFRNDFSGEVDFRDIDLTDEILTYVQDSLSKSPFIPSDYQQQQSLALNSSCMVQEHLHLEQQQQHHQKQVVVEPQQQLCQKMKHMQVNGMFENWNSNQFVPFNCPQQDPQQYNVFTDLHGISQEFPYKSEMDSMPYTQNFISCNQPVLPQHSKCTELDYPMGSFEPSPYPTTSSLEDFVTCLQLPENQKHGLNPQSAIITPQTCYAGAVSMYQCQPEPQHTHVGQMQYNPVLPGQQAFLNKFQNGVLNETYPAELNNINNTQTTTHLQPLHHPSEARPFPDLTSSGFL
Turning to B3, the binding result with LZTR1 R810W-FLAG and with LZTR1-FLAG was “binds” each time.

B4: APEH (other, human, UniProt P13798 1-732, looked up)
chain: MERQVLLSEPEEAAALYRGLSRQPALSAACLGPEVTTQYGGQYRTVHTEWTQRDLERMENIRFCRQYLVFHDGDSVVFAGPAGNSVETRGELLSRESPSGTMKAVLRKAGGTGPGEEKQFLEVWEKNRKLKSFNLSALEKHGPVYEDDCFGCLSWSHSETHLLYVAEKKRPKAESFFQTKALDVSASDDEIARLKKPDQAIKGDQFVFYEDWGENMVSKSIPVLCVLDVESGNISVLEGVPENVSPGQAFWAPGDAGVVFVGWWHEPFRLGIRFCTNRRSALYYVDLIGGKCELLSDDSLAVSSPRLSPDQCRIVYLQYPSLIPHHQCSQLCLYDWYTKVTSVVVDVVPRQLGENFSGIYCSLLPLGCWSADSQRVVFDSAQRSRQDLFAVDTQVGTVTSLTAGGSGGSWKLLTIDQDLMVAQFSTPSLPPTLKVGFLPSAGKEQSVLWVSLEEAEPIPDIHWGIRVLQPPPEQENVQYAGLDFEAILLQPGSPPDKTQVPMVVMPHGGPHSSFVTAWMLFPAMLCKMGFAVLLVNYRGSTGFGQDSILSLPGNVGHQDVKDVQFAVEQVLQEEHFDASHVALMGGSHGGFISCHLIGQYPETYRACVARNPVINIASMLGSTDIPDWCVVEAGFPFSSDCLPDLSVWAEMLDKSPIRYIPQVKTPLLLMLGQEDRRVPFKQGMEYYRALKTRNVPVRLLLYPKSTHALSEVEVESDSFMNAVLWLRTHLGS
Turning to B4, the binding result in the experiment with LZTR1 R810W-FLAG and in the experiment with LZTR1-FLAG was “binds” in each case.

B5: ARAF (other, human, UniProt P10398 1-606, looked up)
chain: MEPPRGPPANGAEPSRAVGTVKVYLPNKQRTVVTVRDGMSVYDSLDKALKVRGLNQDCCVVYRLIKGRKTVTAWDTAIAPLDGEELIVEVLEDVPLTMHNFVRKTFFSLAFCDFCLKFLFHGFRCQTCGYKFHQHCSSKVPTVCVDMSTNRQQFYHSVQDLSGGSRQHEAPSNRPLNELLTPQGPSPRTQHCDPEHFPFPAPANAPLQRIRSTSTPNVHMVSTTAPMDSNLIQLTGQSFSTDAAGSRGGSDGTPRGSPSPASVSSGRKSPHSKSPAEQRERKSLADDKKKVKNLGYRDSGYYWEVPPSEVQLLKRIGTGSFGTVFRGRWHGDVAVKVLKVSQPTAEQAQAFKNEMQVLRKTRHVNILLFMGFMTRPGFAIITQWCEGSSLYHHLHVADTRFDMVQLIDVARQTAQGMDYLHAKNIIHRDLKSNNIFLHEGLTVKIGDFGLATVKTRWSGAQPLEQPSGSVLWMAAEVIRMQDPNPYSFQSDVYAYGVVLYELMTGSLPYSHIGCRDQIIFMVGRGYLSPDLSKISSNCPKAMRRLLSDCLKFQREERPLFPQILATIELLQRSLPKIERSASEPSLHRTQADELPACLLSAARLVP
For B5, in the experiment with LZTR1 R810W-FLAG, the binding result was “binds”.
